Test results reported in paper PMC12612047 (Nature Communications, 2025).
Each block holds one binder with its values, some of them ahead of it.

What was measured:
[1] = target: T1, purified, catalytically inactive CNA/B containing CNA_(Trunc+H151Q) (UniProt Q08209 1-391; P63098 1-170, H151Q); assay: NMR titration
[2] = target: T1, purified, catalytically inactive CNA/B …; assay: fluorescence polarisation
Target sequence in this assay (Q08209 1-391 H151Q, chain 1 of 2): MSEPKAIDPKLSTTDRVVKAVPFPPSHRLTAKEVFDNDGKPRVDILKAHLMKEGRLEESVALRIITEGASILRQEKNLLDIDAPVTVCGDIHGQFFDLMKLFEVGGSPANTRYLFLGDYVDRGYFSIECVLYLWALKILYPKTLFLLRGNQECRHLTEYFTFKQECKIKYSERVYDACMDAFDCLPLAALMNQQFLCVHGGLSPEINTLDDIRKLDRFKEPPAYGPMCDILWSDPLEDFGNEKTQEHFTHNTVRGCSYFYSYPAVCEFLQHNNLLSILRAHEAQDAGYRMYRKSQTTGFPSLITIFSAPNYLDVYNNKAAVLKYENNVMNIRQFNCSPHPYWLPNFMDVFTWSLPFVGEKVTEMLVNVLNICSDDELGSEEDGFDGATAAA
Target sequence in this assay (P63098 whole entry, chain 2 of 2): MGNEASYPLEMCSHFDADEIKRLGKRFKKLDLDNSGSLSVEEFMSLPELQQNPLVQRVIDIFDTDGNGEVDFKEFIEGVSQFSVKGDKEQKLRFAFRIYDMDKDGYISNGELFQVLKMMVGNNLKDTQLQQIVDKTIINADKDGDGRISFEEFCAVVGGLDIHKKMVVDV

binding result [1]: binds
B1: full-length CLMB (76 residues) expressed in E. coli (natural protein)
chain: MGLKMSCLKGFQMCVSSSSSSHDEAPVLNDKHLDVPDIIITPPTPTGMMLPRDLGSTVWLDETGSCPDDGEIDPEA
modifications: uniformly ^15N-labeled in the NMR titrations; not phosphorylated

binding result [2]: binds
Binder: SHDEAPVLNDKHLDVPDIIITPPTPTGMML [CLMBWT peptide (residues 21-50), not phosphorylated, unlabeled]

binding result [2]: binds
Binder: SHDEAPVLNDKHADAPDIIITPPTPTGMML (phosphothreonine at 44) [pCLMB_(LxVMut) peptide (residues 21-50, pThr44), unlabeled]
